Source: PMC8728441, “Biosynthesis of the redox cofactor mycofactocin is controlled by the transcriptional regulator MftR and induced by long-chain acyl-CoA species” (The Journal of Biological Chemistry, 2021)
Substitutions are numbered along the chain they refer to.

T1: MftR WT (Mycobacterium smegmatis mc2155, UniProt A0QSB5 1-200)
T1 sequence: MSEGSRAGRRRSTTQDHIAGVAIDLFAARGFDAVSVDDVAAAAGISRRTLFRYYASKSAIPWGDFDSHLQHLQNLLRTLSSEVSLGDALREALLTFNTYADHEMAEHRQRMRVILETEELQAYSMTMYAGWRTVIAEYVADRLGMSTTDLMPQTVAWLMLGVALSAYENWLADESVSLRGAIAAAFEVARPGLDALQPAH

T2: MftR D38A (Mycobacterium smegmatis mc2155, UniProt A0QSB5 1-200, D38A)
T2 sequence: T1 sequence with D38A

T3: MftR L120R (Mycobacterium smegmatis mc2155, UniProt A0QSB5 1-200, L120R)
T3 sequence: T1 sequence with L120R

T4: MftR R48A (Mycobacterium smegmatis mc2155, UniProt A0QSB5 1-200, R48A)
T4 sequence: T1 sequence with R48A

T5: MftR M127A (Mycobacterium smegmatis mc2155, UniProt A0QSB5 1-200, M127A)
T5 sequence: T1 sequence with M127A

T6: MftR R29A (Mycobacterium smegmatis mc2155, UniProt A0QSB5 1-200, R29A)
T6 sequence: T1 sequence with R29A

T7: MftR H68A (Mycobacterium smegmatis mc2155, UniProt A0QSB5 1-200, H68A)
T7 sequence: T1 sequence with H68A

T8: MftR D16R (Mycobacterium smegmatis mc2155, UniProt A0QSB5 1-200, D16R)
T8 sequence: T1 sequence with D16R

B1: FAM-Omft (dsDNA)
DNA 1: TCCATTCTGGCACTCGATGCCATATAT
DNA 2: ATATATGGCATCGAGTGCCAGAATGGA

Columns and labels:
MftR WT [1] = target: T1, MftR WT; assay: EMSA; conditions: EMSA: 50 mM Hepes, 50 mM NaCl, 0.1 mM EDTA, pH 7.5, room temperature 10 min, 5% PAGE in 1x TBE on ice; footprinting: 30 C 30 min; FP conditions not in material.
MftR D38A = target: T2, MftR D38A; assay: fluorescence polarization; EMSA: 50 mM Hepes, 50 mM NaCl, 0.1 mM EDTA, pH 7.5, room temperature 10 min, 5% PAGE in 1x TBE on ice; footprinting: 30 C 30 min; FP conditions not in material. Text fold changes for R29A/R48A and L120R/M127A are swapped relative to Table 2; table values used; conditions: protein: recombinant; tags: His-tag (pET-28a); chain copies: 2; label: 6-FAM; blunt
MftR WT [2] = target: T1, MftR WT; assay: as above; conditions: protein: recombinant; tags: His-tag (pET-28a, NdeI/XhoI); chain copies: 2; label: 6-FAM; blunt
MftR L120R = target: T3, MftR L120R; assay: as above; conditions: protein: recombinant; tags: His-tag (pET-28a); chain copies: 2; label: 6-FAM; blunt
MftR R48A = target: T4, MftR R48A; assay: as above; conditions: protein: recombinant; tags: His-tag (pET-28a); chain copies: 2; label: 6-FAM; blunt
MftR M127A = target: T5, MftR M127A; assay: as above; conditions: protein: recombinant; tags: His-tag (pET-28a); chain copies: 2; label: 6-FAM; blunt
MftR R29A = target: T6, MftR R29A; assay: as above; conditions: protein: recombinant; tags: His-tag (pET-28a); chain copies: 2; label: 6-FAM; blunt
MftR H68A = target: T7, MftR H68A; assay: EMSA; 100 uM oleoyl-CoA; EMSA: 50 mM Hepes, 50 mM NaCl, 0.1 mM EDTA, pH 7.5, room temperature 10 min, 5% PAGE in 1x TBE on ice; footprinting: 30 C 30 min; FP conditions not in material. Text fold changes for R29A/R48A and L120R/M127A are swapped relative to Table 2; table values used; conditions: protein: recombinant; tags: His-tag (pET-28a); chain copies: 2; label: 6-FAM; blunt
MftR D16R = target: T8, MftR D16R; assay: as above; conditions: protein: recombinant; tags: His-tag (pET-28a); chain copies: 2; label: 6-FAM; blunt

Molecule | Kd (MftR WT [1]) [µM] | binding result (MftR D38A) | Kd (MftR WT [2]) [µM] | Kd (MftR L120R) [µM] | Kd (MftR R48A) [µM] | Kd (MftR M127A) [µM] | Kd (MftR R29A) [µM] | binding result (MftR H68A) | binding result (MftR D16R)
Pmft | 0.6 | – | – | – | – | – | – | – | –
B1 | – | no binding | 1.3 ± 0.6 | 28 ± 6 | 13 ± 1.1 | 13 ± 6 | 20.5 ± 2 | binds | binds
